The values below come from US20110038917A1, “THERAPEUTIC COMPOSITIONS AND METHODS FOR TREATING GRAM-NEGATIVE BACTERIAL INFECTIONS” (RQ Bioscience, Inc., priority 2007, published 2011).

The conditions of the data set: human, in vivo. The method, then: The patient dissolved varying amounts of grape seed powder containing 20% (w/w) of oligomeric proanthocyanidin (OPC) in 37% alcohol/water to produce solutions having OPC concentrations of 1,000 mg/ml, 2,000 mg/ml and 4,000 mg/ml. Each of the solutions were filtered the resulting filtrate then diluted 1:1 with water to produce solutions having final concentrations of 500 mg OPC/l, 1,000 mg OPC/l and 2,000 mg OPC/l. They loaded 3 ml of the 500 mg OPC/l solution into an inhaler and self-administered the solution to their lungs two to three times/day for a few days. […] They performed the same experiment with each of the higher concentration OPC solutions. […] The patient then prepared a solution of bovine apolactoferrin. The lactoferrin was manufactured by Life Extension as a solid in a capsule. The patient broke open capsules and dissolved the lactoferrin therein in 18.5% alcohol/water to final concentrations ranging from 1 g lactoferrin/l to 4.5 g lactoferrin/l. […] The patient reported a relief from all signs of their infection, including coughing, for 4 to 5 hours following administration of the lactoferrin. After that time, their condition began to return to the pre-treatment state. […] It is theorized that this may have been due to a build-up in the patient's lungs of contaminants present in the OPC/lactoferrin preparation that could not be removed by filtration prior to administration. […]

B1: lactoferrin: bovine apolactoferrin manufactured by Life Extension as a solid in a capsule, dissolved in 18.5% alcohol/water (protein, UniProt P24627 20-708, looked up)
Lactotransferrin: APRKNVRWCTISQPEWFKCRRWQWRMKKLGAPSITCVRRAFALECIRAIAEKKADAVTLDGGMVFEAGRDPYKLRPVAAEIYGTKESPQTHYYAVAVVKKGSNFQLDQLQGRKSCHTGLGRSAGWIIPMGILRPYLSWTESLEPLQGAVAKFFSASCVPCIDRQAYPNLCQLCKGEGENQCACSSREPYFGYSGAFKCLQDGAGDVAFVKETTVFENLPEKADRDQYELLCLNNSRAPVDAFKECHLAQVPSHAVVARSVDGKEDLIWKLLSKAQEKFGKNKSRSFQLFGSPPGQRDLLFKDSALGFLRIPSKVDSALYLGSRYLTTLKNLRETAEEVKARYTRVVWCAVGPEEQKKCQQWSQQSGQNVTCATASTTDDCIVLVLKGEADALNLDGGYIYTAGKCGLVPVLAENRKSSKHSSLDCVLRPTEGYLAVAVVKKANEGLTWNSLKDKKSCHTAVDRTAGWNIPMGLIVNQTGSCAFDEFFSQSCAPGADPKSRLCALCAGDDQGLDKCVPNSKEKYYGYTGAFRCLAEDVGDVAFVKNDTVWENTNGESTADWAKNLNREDFRLLCLDGTRKPVTEAQSCHLAVAPNHAVVSRSDRAAHVKQVLLHQQALFGKNGKNCPDKFCLFKSETKNLLFNDNTECLAKLGGRPTYEEYLGTEYVTAIANLKKCSTSPLLEACAFLTR
modifications: apo form
notes: bovine apolactoferrin manufactured by Life Extension as a solid in a capsule, dissolved in 18.5% alcohol/water
B1: the “side effects on inhalation” value is on record as “no immediate deleterious side effects”.
